One may read the Kd as the free concentration of one partner at which half of the binding sites on the other are occupied at equilibrium, for simple one-to-one binding. As usually defined, the koff is a measure of how fast the partners let go of each other. The kon is the rate constant with which the complex forms.

In one experiment the target is 食蟹猴TSLP (cynomolgus monkey (食蟹猴), UniProt A0A7N9CAT7 29-159). As to the kind of experiment: cell-based or functional assay.
In experiment [1] the target is T1, 人胸腺基质淋巴细胞生成素 (Human Thymic Stromal Lymphopoietin, TSLP) (human, UniProt Q969D9 29-159).
T1 construct: also called 人TSLP; hTSLP
As to the kind of experiment: SPR, Biacore T200, 25°C, antibody captured on Protein A chip, human TSLP as analyte, 1:1 model, mean of three runs. A general note: In SPR one partner is held on a chip, and binding of the other changes the refractive index at the surface.

Experiment [2] has as its target T1, 人胸腺基质淋巴细胞生成素 (Human Thymic Stromal …). As to the kind of experiment: cell-based or functional assay.

食蟹猴TSLP, sequence (A0A7N9CAT7 entry or part of it): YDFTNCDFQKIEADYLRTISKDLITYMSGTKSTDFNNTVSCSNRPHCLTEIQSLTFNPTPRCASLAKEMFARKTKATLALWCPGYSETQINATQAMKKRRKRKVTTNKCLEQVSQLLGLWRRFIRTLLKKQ

B1: Tezepelumab (antibody, V domains shown)
VH: QMQLVESGGGVVQPGRSLRLSCAASGFTFRTYGMHWVRQAPGKGLEWVAVIWYDGSNKHYADSVKGRFTITRDNSKNTLNLQMNSLRAEDTAVYYCARAPQWELVHEAFDIWGQGTMVTVSS
VL: SYVLTQPPSVSVAPGQTARITCGGNNLGSKSVHWYQQKPGQAPVLVVYDDSDRPSWIPERFSGSNSGNTATLTISRGEAGDEADYYCQVWDSSSDHVVFGGGTKLTVLG
In turn, B1 registered a 抑制食蟹猴TSLP诱导的SW756-STAT5-Luciferase报告基因细胞STAT5磷酸化活性的IC50 with 食蟹猴TSLP of 1.88 ng/mL.

B2: QX008N (HZD8G2-57) (antibody, V domains shown)
VH: EVQLVESGGGLVQPGGSLRLSCAASGFSLSSYYMSWVRQAPGKGLEWVGFISYGGSAYHATWAQGRFTISKDNSKNTLYLQMNSLRAEDTAVYYCAREFRSMTYGAEWGIWGQGTLVTVSS
VL: AYQMTQSPSSVSASVGDRVTITCQASESIYDTLAWYQQKPGKAPKLLIYSASSLASGVPSRFSGSGSGTDFTLTISSLQPEDFATYYCQQGYTMPDVDKNPFGGGTKVEIKR
Regarding B2, in experiment [1], the Kd amounted to 17.5 pM, the koff was determined as 2.99e-05 s⁻¹ and the kon is 1.74e+06 M⁻¹ s⁻¹. Moreover, in experiment [2], the “抑制人TSLP诱导的PBMC细胞释放TARC(CCL17)活性的IC50” value is 77.1 ng/mL, the 抑制人TSLP诱导的SW756-STAT5-Luciferase报告基因细胞STAT5磷酸化活性的IC50 was found to be 0.837 ng/mL and the “抑制人TSLP诱导的全血释放TARC(CCL17)活性的IC50” value worked out at 0.839 ng/mL. In the experiment with 食蟹猴TSLP, this molecule yielded a 抑制食蟹猴TSLP诱导的SW756-STAT5-Luciferase报告基因细胞STAT5磷酸化活性的IC50 of 0.889 ng/mL.

Source of the values: CN114605536A (JIANGSU QUANXIN BIOMEDICINE CO LTD, dated 2022).
